# Laboratory results: PMC6434023, “A TonB-dependent transporter is required for secretion of protease PopC across the bacterial outer membrane” (Nature Communications, 2019)
# T1: PopC expressed in E. coli (M. xanthus, UniProt Q1DFT5 1-475)
# T1 construct: PopC of Myxococcus xanthus, expressed as 'native' PopC in E. coli; no tag is named; 'Native' probably means the untagged whole protein; also called native PopC; source: E. coli Rosetta-2(DE3) (WT or ΔtonB), IPTG-induced, in isolated membranes / cell fractions
# T1 sequence (looked up): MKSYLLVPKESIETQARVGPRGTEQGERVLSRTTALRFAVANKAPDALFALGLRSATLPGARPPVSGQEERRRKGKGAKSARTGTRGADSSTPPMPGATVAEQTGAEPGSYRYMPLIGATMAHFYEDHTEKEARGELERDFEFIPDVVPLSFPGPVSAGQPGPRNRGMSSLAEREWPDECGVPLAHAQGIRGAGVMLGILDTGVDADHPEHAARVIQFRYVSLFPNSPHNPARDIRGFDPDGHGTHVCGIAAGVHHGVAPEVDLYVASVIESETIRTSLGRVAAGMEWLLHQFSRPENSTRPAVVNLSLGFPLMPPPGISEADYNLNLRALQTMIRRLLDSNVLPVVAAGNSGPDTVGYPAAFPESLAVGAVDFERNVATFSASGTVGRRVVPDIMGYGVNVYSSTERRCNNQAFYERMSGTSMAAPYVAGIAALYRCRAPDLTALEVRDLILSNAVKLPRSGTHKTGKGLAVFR
# Molecular target: T1, PopC expressed in E. coli
# Assay: affinity purification with mass spectrometry; the co-IP samples (α-PopC on E. coli membranes, WT and ΔtonB) analysed by label-free quantitative MS; iBAQ ratio of Oar with PopC over without PopC, normalised to the input
# Conditions: partners not purified
binder,measurement,value
"Oar expressed in E. coli (natural protein, M. xanthus, UniProt P38370 27-1061, looked up, Oar (MXAN_1450) of Myxococcus xanthus, expressed as 'native' Oar in E. coli; no tag is named; 'Native' probably means the untagged protein with its own signal peptide; it was found enriched in the E. coli outer membrane; also called native Oar; source: E. coli Rosetta-2(DE3) (WT or ΔtonB), IPTG-induced, in isolated membranes / cell fractions) QSSTIIGTVIDAQSRQPAADVVVTATSPNLQGEQTVVTDAQGNYRIPQLPPGDYTLRFEKEQFKPYARSAIQLRLNRTIRVNVELLPEALGEVVEIVGAPPTIDVGSTTMGVNVDQEFIKRIAVARPGGKGGATRSFESLAELAPGAQNDNYGVSINGSTSPENGYVVDGLSTNDPAFGVNASPLSIEFVQDVNIITGGYMPEFGRSTGGVINAVTRSGSNEFHGSVFANWTPGTLEGTRKQIREEGTVITGQNQLQNLGDFGATLGGPILKDKLWFFAGFAPSFTRYQHTRTLNALRVDDEGNTIKDETDFTVADAIPGSARKYYADSRTIQYMGKLTYLINQDHNVSFALNGTPTSTGGLGKLSVNPQSGGLPGVLATRPGDFGLTETKANTTSLALKYAGAFADKKVLVDANLGWFHQTASTLPGDGSNLGDRTGLAGYSRMVYTTPRALTLFEALPEGQEGACGSTPEEQLVRSPVTGYGVGGPGFMSDQTLDRYQANAKATYLLNALGTHVFKAGVDVELLSFDQVKAYGGGVFFQEGSNYGVAGQGPAVHDARRYGYQTGPDSAVTQFTQVAKTTSTTVGGFLQDSWSIANRVTLNLGVRYDVQALYGGNGDLSLLLGNQWSPRIGAIVDPFANGRAKVFVNFARYYEQVPLNLMDRAFPGENRISARRSLAEPGQGTATSCDPSSFESQQATCNTDSNLLAIPESSRNVNRFYTGGTVGGTPVDPDIKAQSSDEIVVGAEYEVLANTRLGASYTHKDMNSVIEDMSRDDGNTYFLGNPGSGFAGEFPTPVRNYDNVTVYLNRTFADGWLAQANYTWSRLYGNYPGLFRPETGQLDPNILSDFDLIELLENRTGLLPFDRTHQIKVFGAKEFNISNALSASVGVSYRGSSGTPINYWGSHWAYLQDESFVLPRGAGGRTPWINTIDSNIGVNYRVSKDSVVSFTLDVFNLFNFQGVNTVDQTYTLRDIKPIPGGTPADLENLPGRVEFQDQAPRDEPFGSVDGDVNKNFKNPLSYQAPRQVRFGIRYTF","fold enrichment of Oar in the α-PopC co-IP, with PopC over without PopC (iBAQ ratio), WT E. coli",4.9 fold
same,"fold enrichment of Oar in the α-PopC co-IP, with PopC over without PopC (iBAQ ratio), ΔtonB E. coli",15.1 fold
